Measured values as given in PMC8251712.

How the values were obtained:
[1] = molecular target: T1, Myb10-D (Pcold-Myb10-D fusion) (Triticum aestivum, UniProt C0SPG5 1-265); experiment: EMSA
[2] = molecular target: T1, Myb10-D (Pcold-Myb10-D fusion); experiment: competition
[3] = molecular target: T1, Myb10-D (Pcold-Myb10-D fusion); experiment: EMSA; remark: listed apart in the source
[4] = molecular target: T1, Myb10-D (Pcold-Myb10-D fusion); experiment: competition; remark: listed apart in the source
[5] = molecular target: T1, Myb10-D (Pcold-Myb10-D fusion); experiment: competition; remark: listed apart in the source

B1: ABA3 269200 WT (dsDNA)
DNA 1: ACATCGTCGTTCATCACCAGCTAGCGAAGCAAACAAGGAG
DNA 2: CTCCTTGTTTGCTTCGCTAGCTGGTGATGAACGACGATGT
binding result [1]: binds

B2: ABA3 269200 mu (dsDNA)
DNA 1: ACATCGTCGTTCATCACGGGGGGGCGAAGCAAACAAGGAG
DNA 2: CTCCTTGTTTGCTTCGCCCCCCCGTGATGAACGACGATGT
binding result [2]: no binding

B3: AAO 343200 WT (dsDNA)
DNA 1: CACGAAGATTTCCCAGCTATCATCAATAAGACCAGGTCGC
DNA 2: GCGACCTGGTCTTATTGATGATAGCTGGGAAATCTTCGTG
binding result [3]: no binding

B4: SDR 396500 WT (dsDNA)
DNA 1: CCGGATTGAGGGCCGGAGTAGCTGCAGGTGTGATCTCCCG
DNA 2: CGGGAGATCACACCTGCAGCTACTCCGGCCCTCAATCCGG
binding result [3]: no binding

B5: NCED probe2988 (SMRE) (dsDNA)
DNA 1: ACGTAATCTTTGAACTTTTCACCAAATAAACATTTCCACC
DNA 2: GGTGGAAATGTTTATTTGGTGAAAAGTTCAAAGATTACGT
binding result [1]: binds

B6: NCED freeprobe2988 (WT competitor) (dsDNA)
DNA 1: ACGTAATCTTTGAACTTTTCACCAAATAAACATTTCCACC
DNA 2: GGTGGAAATGTTTATTTGGTGAAAAGTTCAAAGATTACGT
binding result [4]: binds

B7: NCED freeprobe2988mu (mutant competitor) (dsDNA)
DNA 1: ACGTAATCTTTGAACTTTTCGGGGGGAAACATTTCCACC
DNA 2: GGTGGAAATGTTTCCCCCCGAAAAGTTCAAAGATTACGT
binding result [5]: no binding
